assay: soluble on expression in E. coli; label from the status in PepcDB or PDB records

| Sequence | soluble on expression in E. coli |
| --- | --- |
| MGGCCSQEGCNTRPRYLPLKCYPGLPMRATRRLDLSAVERALREVQGRFAELSQHFTEPRDPFTDEVLLNVVEGYALIDDYVARGIDLFDLQQLNLMLEINATVLCGSDPARRLEFAPHLAATEAHFFNNVEGGIKDLYNWYCAYRSDSIWKRAAGVYVRILSKPQLFIEGNNRTGSLIVSYLLMRAGLPPFVLSLDNAEGYFNPSSVIRNSAKHGVKALYELPKIKKKYAAFLEAKAPEPGKFFLNGTPVPACEGSRLEHHHHHH | soluble |
| MLRIDCGGQDTVTKIVAERLMMKTDGRLARMLHVLVHMGLLGGRETSERIAQMLNTNPVVVRRTLGALRESGIVVSEGGRGGGWKLIRSLDQITVLDVQRALVEGQMLPAPLSKDHPNCPVERASNAVLERAHCLAEAALRTAYSETTLAQIAETAVATK | not soluble |
| MGSDKIHHHHHHVIALLKAYKFRLYPTKPQQEYFVKTFGCVRFVYNKMLEERIQLYEDSKLNPDAKQKLPTPAKYKPEFPFLKEVDSLSLANAQMDLNQAYQNFFRDQSVGFPKFKSKHNDRASYTTNNLKGSIRIEDRKVKLPKIGFVKLKQHRPFDGVIKSATVSMTKTRKFFISILVDQAEAQWVPAQNKVGIDLGLEHFAILTNDEWVSEKVANPRFLRKSEEKIKKAQRALSRKKIGSKNREKARIILAKKHEKIAHQRQDFLHKLSKRMVDDNQVIVVETLKSKNMMKNHKIAKSIGDVSWYGFVRQLEYKCAFYGRTLIKADQWYASTQICSSCGVKGEKKTIDVREWMCTCGAHHDRDINASINLLLLAD | not soluble |
| MMNYDRILIRYGEMTTKGKNRNIFVRRLKNNIARKLQAFERIQIEYMRDRMYILLNGEPHEPIIEKLKTVFGIHSFSLAMKCENDLDAIKETALAAVRQLPYKGKTFKVSARRVDKQFPDRSDELNYEVGAHILRHTDGLTVNVREPDIDVRIEVRQDGTYVTCRDIFGAGGLPVGTSGKAMLMLSGGIDSPVAGYLSMKRGLEIEAVHFFSPPFTSERAKQKVIDLVRKLTTYGGRIKLHIVPFTEVQQAIYQGVPNEYSLISTRRAMLRITDALRRRQRALAIVTGESLGQVASQTLESMYVINEVTNTPILRPLVSMDKLEIIELAKQIGTHDISILPYEDCCTIFTPRAPKTKPKKEKVFHYESQLDLAPLLEKAVNDTETLVIDEETGQGDEFAELF | not soluble |
| SLRKERARSAEEPWTQNQQKLLELALQQYPRGSSDCWDKIARCVPSKSKEDCIARYKLLV | soluble |
| MSGSHHHHHHSSGIEGRGRLQTRQDVLYLYNWTYYTPTSLIKKFEQQYNVQVVYDDYASNEDMFAKLSIGASGYDLVVPSGDFVSIMKRKHLLEKIDLSKIPNVQFIKESVRARIAYDPKMEYSVPYYLGAAGIAVNKKAVPSYARTWSIFSRKDLAYRMSMMDDMREVMGAALASLGYNVNTKNEQELAQAAILVTDHWKPNLVKFDSDGYAKSFASGDFVVAHGFAEAFFAETPEAMHEHIDFFIPQDVASPVYVDSFCIPKGARNRDLAHAFINFFLEPAHYAEFLDTFGFPSTIHREAAAYQKKTPYYSEHDLERGTLKTDVGAAIEHYNAHWNAVRFR | soluble |
| MRIRSLEIEHMRAITHLVLKDLPSNGVIVISGENERGKSTIMEAIKLVLGEKHDTNKQSVKAIQPKGHDVGTRICLEADLGPVRFRVSKVFNKKKSCELTIFEPKPANYTGKEANSQLSGLLDAHLDHDLFSALFVEQGDITSMLSAAGISSVTQALGGATDHASNEDNALILTVEKEKDRYFTKSGATKKGGELGIAETAVAEAEQAVLAATQQKETLDRRVESVAGFQRDRDQAQQDLPNARDTLTTREQELKTAELAAQQLENASAQLKIAQDQERILQSDIDAREELRKEQSRLSEALQIRIQEELDLKEKTDSLSEAREKLRSQHEKARADAEKMRQRLEKLKESLRLDTLRTSYQELLTVSKQLEELRTVPEVTGAQLSAAEEANDRAKAAAYVVEAHAATMLINAAQPVTIQIDGEAVALNDTEWTTRITSELTAVIGDVSLTIEPGEQGEQLEQKRAETQETLRAALGDAKDIATLRLQREAWVDAEKELQSLNKRKNEIAMRFGDKADLERDIADAELQVAELDIQESDDLQQLIDDAEKEYLQYQQDADAYQKELGAWDSNDIQVRYATVKARVEAERENLDRCDQKIKAQEEQRPLEVLHSELHNVTAELKRQQDHLAELRETDNLQVAKDLYAGAAARVESLENTIRDCEANLKALQTQIDYAAGAAEQLDVALAQRDVALRVLEAVHHRAQAAMLLYTTLIRHRDIARQKYAAPFTQRLTEFAAPVFGKGVGFELGSDLSVVKRTMKEQTVGVDELSGGAQEQLSIVQRFAVADLASQGGETVPVFIDDALGSTDSNRLEMMATLFSRQGHNQQVFVLTCMPQRYDYVAGKHELRISDLMQ | not soluble |
